# In patent US20190076400A1 (PROTAGONIST THERAPEUTICS, published 2019):
# Square brackets hold non-standard residues; d marks the D form. Primed or numbered codes have the meaning given here. Phe(2,6-Me2,4-CONH2) = Cc1cc(C(N)=O)cc(C)c1C[C@H](N)C(=O)O; Dip = N[C@H](C(=O)O)C(c1ccccc1)c1ccccc1; Dmt = Cc1cc(O)cc(C)c1C[C@H](N)C(=O)O; Tic = O=C(O)[C@@H]1Cc2ccccc2CN1; β3hF = N[C@H](CC(=O)O)Cc1ccccc1; Tic(7-OH)′ = not defined here; Nle = CCCC[C@H](N)C(=O)O; dNMeA = CN[C@H](C)C(=O)O; Aib = CC(C)(N)C(=O)O; Sar = CNCC(=O)O
# Assays:
# [1] = target: µ-opioid receptor (MOR), Human-ORPM1 (human, UniProt P35372 1-400); assay: cell-based or functional assay
# [2] = target: δ-opioid receptor (DOR), Human-ORPD1 (human, UniProt P41143 1-372); assay: cell-based or functional assay
# Chain of δ-opioid receptor (DOR), Human-ORPD1 (P41143 whole entry, stated change not applied): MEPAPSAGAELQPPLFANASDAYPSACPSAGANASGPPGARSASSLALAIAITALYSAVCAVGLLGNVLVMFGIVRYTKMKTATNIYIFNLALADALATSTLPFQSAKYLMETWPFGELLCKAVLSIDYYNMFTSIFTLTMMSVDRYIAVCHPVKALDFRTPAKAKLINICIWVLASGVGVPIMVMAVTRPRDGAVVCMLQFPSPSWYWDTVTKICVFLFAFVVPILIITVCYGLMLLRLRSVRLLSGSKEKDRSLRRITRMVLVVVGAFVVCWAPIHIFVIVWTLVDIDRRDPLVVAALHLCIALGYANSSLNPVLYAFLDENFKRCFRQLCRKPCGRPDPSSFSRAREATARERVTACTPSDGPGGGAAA
# Chain of µ-opioid receptor (MOR), Human-ORPM1 (P35372 whole entry): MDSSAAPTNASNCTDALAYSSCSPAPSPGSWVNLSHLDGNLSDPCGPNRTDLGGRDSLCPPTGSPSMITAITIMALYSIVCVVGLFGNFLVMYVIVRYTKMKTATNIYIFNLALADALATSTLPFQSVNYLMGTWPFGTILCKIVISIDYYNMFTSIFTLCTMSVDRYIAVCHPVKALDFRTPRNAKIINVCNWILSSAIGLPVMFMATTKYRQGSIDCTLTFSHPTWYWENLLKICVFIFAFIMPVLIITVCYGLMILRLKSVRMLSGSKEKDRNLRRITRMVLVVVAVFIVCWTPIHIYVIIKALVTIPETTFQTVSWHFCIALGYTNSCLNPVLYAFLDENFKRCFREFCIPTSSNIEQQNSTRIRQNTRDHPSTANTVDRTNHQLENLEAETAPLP
Binder,MOR EC50 [1] [nM],DOR EC50 [2] [nM]
H-[Dmt][Tic]G[β3hF][Sar]-NH2 (SMILES Cc1cc(O)cc(C)c1C[C@H](N)C(=O)N1Cc2ccccc2C[C@H]1C(=O)NCC(=O)N[C@H](CC(=O)N(C)CC(N)=O)Cc1ccccc1) [H-DMT-Tic-G-bhF-Sar-NH2],≤ 200,≤ 200
"H-[Phe(2,6-Me2,4-CONH2)][Tic]G[β3hF][Sar]-NH2 (SMILES Cc1cc(C(N)=O)cc(C)c1C[C@H](N)C(=O)N1Cc2ccccc2C[C@H]1C(=O)NCC(=O)N[C@H](CC(=O)N(C)CC(N)=O)Cc1ccccc1) [H-Phe(DMC)-Tic-G-bhF-Sar-NH2]",≤ 200,≤ 200
H-[Dmt][dR][Dip][Sar]-NH2 (SMILES Cc1cc(O)cc(C)c1C[C@H](N)C(=O)N[C@H](CCCNC(=N)N)C(=O)N[C@H](C(=O)N(C)CC(N)=O)C(c1ccccc1)c1ccccc1) [H-DMT-r-DPA-Sar-NH2 (Seq. ID 32)],–,> 200
H-[Dmt][dR][Sar]W-NH2 (SMILES Cc1cc(O)cc(C)c1C[C@H](N)C(=O)N[C@H](CCCNC(=N)N)C(=O)N(C)CC(=O)N[C@@H](Cc1c[nH]c2ccccc12)C(N)=O) [H-DMT-r-Sar-W-NH2],–,> 200
H-[Dmt][dR]FV-NH2 (SMILES Cc1cc(O)cc(C)c1C[C@H](N)C(=O)N[C@H](CCCNC(=N)N)C(=O)N[C@@H](Cc1ccccc1)C(=O)N[C@H](C(N)=O)C(C)C) [H-DMT-r-F-V-NH2],–,≤ 10
H-[Phe(4-NHCOCH3)][dA]G[β3hF][Sar]-NH2 [H-Phe(4-NHCOCH3)-a-G-bhF-Sar-NH2],–,≤ 200
H-[Dmt][dR]GW-NH2 (SMILES Cc1cc(O)cc(C)c1C[C@H](N)C(=O)N[C@H](CCCNC(=N)N)C(=O)NCC(=O)N[C@@H](Cc1c[nH]c2ccccc12)C(N)=O) [H-DMT-r-G-W-NH2],–,≤ 50
H-[Dmt][dR]F[Dip]-NH2 (SMILES Cc1cc(O)cc(C)c1C[C@H](N)C(=O)N[C@H](CCCNC(=N)N)C(=O)N[C@@H](Cc1ccccc1)C(=O)N[C@H](C(N)=O)C(c1ccccc1)c1ccccc1) [H-DMT-r-F-DPA-NH2],–,≤ 50
H-[Phe(3-OH)][dA]G[β3hF][Sar]-NH2 [H-meta-Tyr-a-G-bhF-Sar-NH2],–,> 200
H-[Dmt][dT]G[β3hF][Sar]-NH2 (SMILES Cc1cc(O)cc(C)c1C[C@H](N)C(=O)N[C@@H](C(=O)NCC(=O)N[C@H](CC(=O)N(C)CC(N)=O)Cc1ccccc1)[C@H](C)O) [H-DMT-(D)Thr-G-bhF-Sar-NH2],≤ 1,≤ 1
H-[Dmt][dA]L[β3hF][Sar]-NH2 (SMILES Cc1cc(O)cc(C)c1C[C@H](N)C(=O)N[C@H](C)C(=O)N[C@@H](CC(C)C)C(=O)N[C@H](CC(=O)N(C)CC(N)=O)Cc1ccccc1) [H-DMT-a-Leu-bhF-Sar-NH2],≤ 1,≤ 50
H-[Dmt][dY]G[β3hF][Sar]-NH2 (SMILES Cc1cc(O)cc(C)c1C[C@H](N)C(=O)N[C@H](Cc1ccc(O)cc1)C(=O)NCC(=O)N[C@H](CC(=O)N(C)CC(N)=O)Cc1ccccc1) [H-DMT-(D)Tyr-G-bhF-Sar-NH2],≤ 1,≤ 1
H-[Dmt]GG[β3hF][Sar]-NH2 (SMILES Cc1cc(O)cc(C)c1C[C@H](N)C(=O)NCC(=O)NCC(=O)N[C@H](CC(=O)N(C)CC(N)=O)Cc1ccccc1) [H-DMT-G-G-bhF-Sar-NH2],≤ 1,≤ 1
H-[Dmt][dNMeA]F[Sar]-NH2 (SMILES Cc1cc(O)cc(C)c1C[C@H](N)C(=O)N(C)[C@H](C)C(=O)N[C@@H](Cc1ccccc1)C(=O)N(C)CC(N)=O) [H-DMT-N(Me)-a-F-Sar-NH2],≤ 1,≤ 10
H-[Tic(7-OH)′][dA]G[β3hF][Sar]-NH2 [H-Tic(7-OH)-a-G-bhF-Sar-NH2],–,≤ 50
H-[Dmt][dR]W[Nle]-NH2 (SMILES CCCC[C@H](NC(=O)[C@H](Cc1c[nH]c2ccccc12)NC(=O)[C@@H](CCCNC(=N)N)NC(=O)[C@@H](N)Cc1c(C)cc(O)cc1C)C(N)=O) [H-DMT-r-W-Nle-NH2],–,≤ 50
"H-[Phe(2,6-Me2,4-CONH2)][dT]G[β3hF][Sar]-NH2 (SMILES Cc1cc(C(N)=O)cc(C)c1C[C@H](N)C(=O)N[C@@H](C(=O)NCC(=O)N[C@H](CC(=O)N(C)CC(N)=O)Cc1ccccc1)[C@H](C)O) [H-Phe(DMC)-(D)Thr-G-bhF-Sar-NH2]",≤ 10,≤ 1
H-[Dmt][dR]G[Dip]-NH2 (SMILES Cc1cc(O)cc(C)c1C[C@H](N)C(=O)N[C@H](CCCNC(=N)N)C(=O)NCC(=O)N[C@H](C(N)=O)C(c1ccccc1)c1ccccc1) [H-DMT-r-G-DPA-NH2],–,> 200
H-[Dmt][dA][Aib][β3hF][Sar]-NH2 (SMILES Cc1cc(O)cc(C)c1C[C@H](N)C(=O)N[C@H](C)C(=O)NC(C)(C)C(=O)N[C@H](CC(=O)N(C)CC(N)=O)Cc1ccccc1) [H-DMT-a-Aib-bhF-Sar-NH2],≤ 1,≤ 1
H-[Dmt][dNMeA]XG-NH2 (not fully specified (residue 3); printed as DMT-N(Me)a-Aba-G) [H-DMT-N(Me)-a-Aba-G-NH2],≤ 1,≤ 1
H-[Dmt][dA]I[β3hF][Sar]-NH2 (SMILES CC[C@H](C)[C@H](NC(=O)[C@@H](C)NC(=O)[C@@H](N)Cc1c(C)cc(O)cc1C)C(=O)N[C@H](CC(=O)N(C)CC(N)=O)Cc1ccccc1) [H-DMT-a-ILeu-bhF-Sar-NH2],≤ 1,≤ 50
"H-[Phe(2,6-Me2,4-CONH2)]GG[β3hF][Sar]-NH2 (SMILES Cc1cc(C(N)=O)cc(C)c1C[C@H](N)C(=O)NCC(=O)NCC(=O)N[C@H](CC(=O)N(C)CC(N)=O)Cc1ccccc1) [H-Phe(DMC)-G-G-bhF-Sar-NH2]",≤ 1,≤ 1
H-[Dmt][dD]G[β3hF][Sar]-NH2 (SMILES Cc1cc(O)cc(C)c1C[C@H](N)C(=O)N[C@H](CC(=O)O)C(=O)NCC(=O)N[C@H](CC(=O)N(C)CC(N)=O)Cc1ccccc1) [H-DMT-(D)Asp-G-bhF-Sar-NH2],≤ 1,≤ 1
H-[Dmt][dR]F[Sar]-NH2 (SMILES Cc1cc(O)cc(C)c1C[C@H](N)C(=O)N[C@H](CCCNC(=N)N)C(=O)N[C@@H](Cc1ccccc1)C(=O)N(C)CC(N)=O) [H-DMT-r-F-Sar-NH2],≤ 1,≤ 10
